# From PMC5123862, “Characterization of human translesion DNA synthesis across a UV-induced DNA lesion” (eLife, 2016)
# B1: Pol η (human DNA polymerase eta, full length, wild type, unlabeled) (enzyme, UniProt Q9Y253 1-713, looked up)
# chain: MATGQDRVVALVDMDCFFVQVEQRQNPHLRNKPCAVVQYKSWKGGGIIAVSYEARAFGVTRSMWADDAKKLCPDLLLAQVRESRGKANLTKYREASVEVMEIMSRFAVIERASIDEAYVDLTSAVQERLQKLQGQPISADLLPSTYIEGLPQGPTTAEETVQKEGMRKQGLFQWLDSLQIDNLTSPDLQLTVGAVIVEEMRAAIERETGFQCSAGISHNKVLAKLACGLNKPNRQTLVSHGSVPQLFSQMPIRKIRSLGGKLGASVIEILGIEYMGELTQFTESQLQSHFGEKNGSWLYAMCRGIEHDPVKPRQLPKTIGCSKNFPGKTALATREQVQWWLLQLAQELEERLTKDRNDNDRVATQLVVSIRVQGDKRLSSLRRCCALTRYDAHKMSHDAFTVIKNCNTSGIQTEWSPPLTMLFLCATKFSASAPSSSTDITSFLSSDPSSLPKVPVTSSEAKTQGSGPAVTATKKATTSLESFFQKAAERQKVKEASLSSLTAPTQAPMSNSPSKPSLPFQTSQSTGTEPFFKQKSLLLKQKQLNNSSVSSPQQNPWSNCKALPNSLPTEYPGCVPVCEGVSKLEESSKATPAEMDLAHNSQSMHASSASKSVLEVTQKATPNPSLLAAEDQVPCEKCGSLVPVWDMPEHMDYHFALELQKSFLQPHSSNPQVVSAVSHQGKRNPKSPLACTNKRPRPEGMQTLESFFKPLTH
# notes: human DNA polymerase eta (pol η), single subunit; N-terminal catalytic core residues 1-475, C-terminal portion residues 476-713; also called unlabeled pol η; source: recombinant, purified from the pET21A-hPol η expression vector (modified protocol of Li et al., 2013)
# Experiments:
# [1] = molecular target: T1, Cy5-labeled PCNA (human PCNA site-specifically labeled with Cy5 at amino acid residue 107) (human, UniProt P12004 1-261, Cy5 at amino acid residue 107); experiment: FRET or BRET; holoenzyme assembly: RFC (100 nM), Cy5-PCNA (100 nM) and forked Cy3-P/T DNA (100 nM, biotin/Neutravidin) pre-incubated with 1 mM ATP, titrated with unlabeled pol η; FRET between DNA and PCNA (I670/I570); one-site binding model; room temperature; ionic strength 200 mM; conditions: both partners purified
# T1 sequence (P12004 whole entry N107C): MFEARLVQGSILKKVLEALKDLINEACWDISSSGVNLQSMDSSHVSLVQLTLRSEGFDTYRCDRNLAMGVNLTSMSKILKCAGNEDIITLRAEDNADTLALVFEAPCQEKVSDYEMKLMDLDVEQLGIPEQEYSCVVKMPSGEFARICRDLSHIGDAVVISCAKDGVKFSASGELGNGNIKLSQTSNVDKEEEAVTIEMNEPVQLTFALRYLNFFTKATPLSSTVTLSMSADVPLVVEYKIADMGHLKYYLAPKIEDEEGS
# [2] = molecular target: T1, Cy5-labeled PCNA (human PCNA …); experiment: FRET or BRET; competitive inhibition: pre-assembled Cy3-Pol η•Cy5-PCNA complex (200 nM Cy3-Pol η, 20 nM Cy5-PCNA) titrated with unlabeled competitor (PCNA, (Ub)3-PCNA or pol η, 0-5 μM); dose-response model, Ki from IC50 by the Munson-Rodbard solution; room temperature; replication assay buffer, ionic strength 200 mM; conditions: both partners purified
binder,measurement,setting,value
B1,KD for Cy5-PCNA loaded on forked Cy3-P/T DNA (pol η holoenzyme formation),[1],28 ± 5.38 nM
same,Ki,[2],112 ± 15.5 nM
